According to patent publication US20100075434A1 (NATIONAL UNIVERSITY CORPORATION TOKYO MEDICAL AND DENTAL …, published 2010):
Substitutions are numbered along the chain they refer to. Square brackets hold non-standard residues; d marks the D form. * marks the point of attachment. NBD = O=[N+]([O-])c1ccc(*)c2nonc12; Dap = NC[C@H](N)C(=O)O; ClAc = O=C(CCl)*

B1: probe peptide for crosslink reaction, structural formula (12) (peptide)
peptide: ClAc-GALKKKLEALKKK[Dap](NBD)EALKKKLA-NH2
notes: also called ClAc-G probe
B2: probe polypeptide of Example 1, structural formula (9) (peptide)
peptide: Ac-ALKKKLEALKKK[Dap](NBD)EALKKKLA-NH2
SMILES: CC(=O)N[C@@H](C)C(=O)N[C@@H](CC(C)C)C(=O)N[C@@H](CCCCN)C(=O)N[C@@H](CCCCN)C(=O)N[C@@H](CCCCN)C(=O)N[C@@H](CC(C)C)C(=O)N[C@@H](CCC(=O)O)C(=O)N[C@@H](C)C(=O)N[C@@H](CC(C)C)C(=O)N[C@@H](CCCCN)C(=O)N[C@@H](CCCCN)C(=O)N[C@@H](CCCCN)C(=O)N[C@@H](CNc1ccc([N+](=O)[O-])c2nonc12)C(=O)N[C@@H](CCC(=O)O)C(=O)N[C@@H](C)C(=O)N[C@@H](CC(C)C)C(=O)N[C@@H](CCCCN)C(=O)N[C@@H](CCCCN)C(=O)N[C@@H](CCCCN)C(=O)N[C@@H](CC(C)C)C(=O)N[C@@H](C)C(N)=O
notes: the text says (9); also called L-NBD; probe peptide

Key:
[1] = target: T1, fused protein of DsRed and PKC having at its N terminal end a tag polypeptide of sequence (A) (Homo sapiens (Human), UniProt Q05655 1-676); test: fluorescence microscopy of permeabilized CHO.K1 cells, 1 µM probe, NBD against DsRed localization with and without PDBu
T1 construct: Expressed in the cytoplasm of CHO.K1 cells, which were permeabilized with saponin before the probe was added; also called tag-fused PKC
T1 sequence (Q05655 other isoform, or with tags, fused parts or gaps limits assumed): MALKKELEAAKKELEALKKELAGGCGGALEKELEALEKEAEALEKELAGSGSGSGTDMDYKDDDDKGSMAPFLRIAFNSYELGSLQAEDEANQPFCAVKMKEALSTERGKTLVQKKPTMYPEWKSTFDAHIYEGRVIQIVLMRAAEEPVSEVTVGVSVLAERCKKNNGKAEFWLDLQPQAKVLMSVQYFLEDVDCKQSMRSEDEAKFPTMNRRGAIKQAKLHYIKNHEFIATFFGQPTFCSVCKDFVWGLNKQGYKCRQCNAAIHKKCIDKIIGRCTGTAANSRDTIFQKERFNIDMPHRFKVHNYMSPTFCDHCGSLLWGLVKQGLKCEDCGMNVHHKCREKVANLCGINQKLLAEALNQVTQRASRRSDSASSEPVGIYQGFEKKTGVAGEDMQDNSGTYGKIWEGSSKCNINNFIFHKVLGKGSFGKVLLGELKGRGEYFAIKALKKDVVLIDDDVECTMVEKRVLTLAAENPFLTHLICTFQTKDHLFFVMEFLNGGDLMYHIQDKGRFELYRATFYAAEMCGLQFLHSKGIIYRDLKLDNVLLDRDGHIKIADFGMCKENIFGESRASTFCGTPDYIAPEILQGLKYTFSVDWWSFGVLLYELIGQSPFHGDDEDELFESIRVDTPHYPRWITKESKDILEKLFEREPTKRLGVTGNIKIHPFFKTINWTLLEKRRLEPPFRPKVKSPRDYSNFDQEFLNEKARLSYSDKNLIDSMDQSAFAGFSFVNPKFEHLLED
Description: Subsequently, a permeabilization buffer (20 mM Hepes, pH 7.4, 140 mM KCl, 50 μg/mL saponin, 5 mM oxalic acid) was added to the thus-prepared CHO.K1 cells. After left to stand on ice for 10 min, the cells were washed with PBS, followed by incubating on ice for 20 min in PBS. Thereafter, the cells were incubated in PBS at room temperature for 2 min and then 37° C. for 2 min. Further, the cells were incubated at 37° C. for 30 min in a conditioned medium (Ham's F12) to which a probe indicated by sequence (B) (probe concentration: 1 μM (Final conc.)) had been added.
Separately, before treated with the permeabilization buffer, the above-prepared CHO.K1 cells were treated for 10 min with 10 mM DMSO containing PDBu (phorbol 12,13 dibutyrate; final concentration: 10 μM). The cells were observed by the fluorescence microscope similar to the above.
The following was used as a control; a group which was not treated with PDBu, and CHO.K1 cells to which only DIC was introduced (note that DIC is a vector used for introducing into cells the above-mentioned fused protein of DsRed and PKC having at its N terminal end a tag polypeptide indicated by sequence (A). The cells were observed as mentioned above at predetermined wavelength (515 nm to 560 nm). The results are shown in FIG. 11.

[2] = target: T2, tag polypeptide of Example 3, structural formula (11) (not fully specified); test: fluorescence titration, tag added to 0.5 µM probe in HEPES buffer, 505 nm, 1:1 model
T2 construct: also called G2
T2 peptide: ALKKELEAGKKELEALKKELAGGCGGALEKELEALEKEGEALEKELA
Description: (§1) In the fluorescence titration, the rate of change of the fluorescence intensity at 505 nm was plotted against the concentration of the tag peptide and the dissociation constant was calculated from a theoretical formula assuming 1 to 1 binding of the tag peptide to the probe peptide.
(§2) In FIG. 6, the horizontal axis represents the titer of the tag against the probe whereas the vertical axis represents the relative increase in fluorescence intensity when the fluorescence intensity detected for the probe alone at fluorescence wavelength of 505 nm is estimated as 1. […] In Example 1, the fluorescence intensity at 505 nm in the presence of 1 equivalent of tag peptide was 18 times as high as that measured in the absence of the tag peptide.

[3] = target: T3, tag polypeptide of Example 1, structural formula (8) (not fully specified); test: as above
T3 construct: Chemically synthesized from two fragments (Chain A with the linker cysteine, Chain B) joined by native chemical ligation; also called A2
T3 peptide: T2 peptide with G9A, G39A
Description: as §1, §2

[4] = target: T4, tag polypeptide of Example 2, structural formula (10); test: as above
T4 construct: also called L2
T4 peptide: T2 peptide with G9L, G39L
Description: as §1, §2

[5] = target: T2, tag polypeptide of Example 3, …; test: fluorescence titration, 0.5 µM probe in HEPES buffer
Description: as §1, §2

[6] = target: T3, tag polypeptide of Example 1, …; test: as above
Description: as §1, §2

[7] = target: T4, tag polypeptide of Example 2, …; test: as above
Description: as §1, §2

Binder	binding result [1]	Kd [2] [nM]	Kd [3] [nM]	Kd [4] [nM]	equivalents of tag peptide at which the change in fluorescence saturates [5] [equivalent]	equivalents of tag peptide at which the change in fluorescence saturates [6] [equivalent]	fold increase of fluorescence intensity at 505 nm with 1 equivalent of tag peptide against probe alone [6] [times]	equivalents of tag peptide at which the change in fluorescence saturates [7] [equivalent]
B1	binds	–	–	–	–	–	–	–
B2	–	755	17.5	24.3	1	1	18	1
